Assay results taken from patent US20260263594A1.
Values joined by “and” are separate entries in the source; they are usually repeats but may differ in a detail not shown here. Equal entries are not always repeated.

Experiments:
[1] = target: Holo-transferrin (Homo sapiens (Human)) (UniProt P02787); assay: SPR, Biacore T200, multi-cycle, Tbp-B at 6.17-500 nM; Run-3
[2] = target: Holo-transferrin (Homo sapiens (Human)) (UniProt P02787); assay: SPR, Biacore T200, multi-cycle, Tbp-B at 6.17-500 nM; Run-1
[3] = target: Holo-transferrin (Homo sapiens (Human)) (UniProt P02787); assay: SPR, Biacore T200, multi-cycle, Tbp-B at 6.17-500 nM; average of 3 runs
[4] = target: Holo-transferrin (Homo sapiens (Human)) (UniProt P02787); assay: SPR, Biacore T200, multi-cycle, Tbp-B at 6.17-500 nM; Run-2

Chain of UniProt P02787 (P02787 20-698 limits assumed, form in doubt): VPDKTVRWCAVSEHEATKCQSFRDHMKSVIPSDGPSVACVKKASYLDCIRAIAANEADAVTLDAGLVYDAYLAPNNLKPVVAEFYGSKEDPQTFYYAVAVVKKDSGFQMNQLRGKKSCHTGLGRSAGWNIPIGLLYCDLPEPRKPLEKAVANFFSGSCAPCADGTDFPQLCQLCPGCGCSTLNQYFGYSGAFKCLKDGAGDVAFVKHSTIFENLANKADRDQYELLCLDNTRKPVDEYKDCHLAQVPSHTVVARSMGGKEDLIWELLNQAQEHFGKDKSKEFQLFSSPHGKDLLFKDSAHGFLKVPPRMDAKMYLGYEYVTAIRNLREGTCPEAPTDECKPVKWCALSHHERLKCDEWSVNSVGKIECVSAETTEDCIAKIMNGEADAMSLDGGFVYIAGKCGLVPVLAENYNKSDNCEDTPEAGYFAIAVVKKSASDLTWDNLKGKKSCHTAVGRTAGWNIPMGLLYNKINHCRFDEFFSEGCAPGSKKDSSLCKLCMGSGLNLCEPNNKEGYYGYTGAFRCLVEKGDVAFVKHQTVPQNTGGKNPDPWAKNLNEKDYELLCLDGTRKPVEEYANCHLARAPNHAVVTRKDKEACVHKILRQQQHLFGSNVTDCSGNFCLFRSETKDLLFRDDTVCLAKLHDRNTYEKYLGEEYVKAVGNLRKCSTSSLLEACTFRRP

## recombinant transferrin binding protein B (r-Tbp-B) from Neisseria meningitidis serogroup C / serotype 2a (strain FAM18) (receptor)
[1]
  Kd: 8.1 nM and 19 nM and 22 nM
  koff: 0.02 s⁻¹ and 0.009 s⁻¹
[2]
  Kd: 7.55 nM and 16.3 nM and 18.3 nM
  koff: 0.0187 s⁻¹ and 0.0081 s⁻¹ and 0.0083 s⁻¹
[3]
  Kd: 7.92 nM and 18.6 nM and 19.5 nM
  koff: 0.019 s⁻¹ and 0.009 s⁻¹
[4]
  Kd: 8.1 nM and 21 nM and 19 nM
  koff: 0.019 s⁻¹ and 0.009 s⁻¹
